Experimental data published in publication PMC5736716, “A hydrophobic anchor mechanism defines a deacetylase family that suppresses host response against YopJ effectors” (Nature Communications, 2017).

How the values were obtained:
[1] = test system: CCCCC(=O)Oc1ccc([N+](=O)[O-])cc1; assay: purified protein; conditions: 20 mM HEPES, 150 mM NaCl, pH 7.52-7.55, 0.01% Triton X-100, room temperature; pH 7.0
[2] = test system: CC(=O)Oc1ccc([N+](=O)[O-])cc1; assay: purified protein; conditions: 20 mM HEPES, 150 mM NaCl, pH 7.52-7.55, 0.01% Triton X-100, room temperature; pH 7.0
[3] = test system: CCCC(=O)Oc1ccc([N+](=O)[O-])cc1; assay: purified protein; conditions: 20 mM HEPES, 150 mM NaCl, pH 7.52-7.55, 0.01% Triton X-100, room temperature; pH 7.0
AtTIPSY1 = biological target: T1, AtTIPSY1 (Arabidopsis thaliana, UniProt Q8GYK2); assay: colorimetric p-nitrophenol release at […] nm; format: biochemical; conditions: 20 mM HEPES, 150 mM NaCl, pH 7.52-7.55, 0.01% Triton X-100, room temperature
T1 sequence (Q8GYK2 1-262): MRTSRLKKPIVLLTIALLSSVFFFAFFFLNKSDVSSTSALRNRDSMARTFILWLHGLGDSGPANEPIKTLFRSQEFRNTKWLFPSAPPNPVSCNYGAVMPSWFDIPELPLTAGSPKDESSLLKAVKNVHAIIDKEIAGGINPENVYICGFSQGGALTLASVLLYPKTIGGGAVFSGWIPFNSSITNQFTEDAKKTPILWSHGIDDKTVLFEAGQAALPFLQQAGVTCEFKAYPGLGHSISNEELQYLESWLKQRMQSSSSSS

HA:AvrBsT = HA:AvrBsT (Xanthomonas euvesicatoria, UniProt A0ABS8LK00); format: biochemical
purified protein [4] = substrate: CC(=O)Oc1ccc([N+](=O)[O-])cc1; assay: purified protein; conditions: 20 mM HEPES, 150 mM NaCl, pH 7.52-7.55, 0.01% Triton X-100, room temperature; pH 7.0; remark: listed apart in the source
purified protein [5] = substrate: CCCC(=O)Oc1ccc([N+](=O)[O-])cc1; assay: purified protein; conditions: 20 mM HEPES, 150 mM NaCl, pH 7.52-7.55, 0.01% Triton X-100, room temperature; pH 7.0; remark: listed apart in the source
purified protein [6] = substrate: CCCCC(=O)Oc1ccc([N+](=O)[O-])cc1; assay: purified protein; conditions: 20 mM HEPES, 150 mM NaCl, pH 7.52-7.55, 0.01% Triton X-100, room temperature; pH 7.0; remark: listed apart in the source

For AtSOBER1 (Arabidopsis thaliana; L63A), the Km [1] was 4 µM, the Km [2] was 6 mM and the Km [3] was 30 µM.

With `CCCCCC(=O)Oc1ccc([N+](=O)[O-])cc1` [pNP hexanoate] the Michaelis-Menten parameters (AtTIPSY1) was “allowed the protein to hydrolyze para-nitrophenyl hexanoate, like AtTIPSY1 is able to”.

AtTIPSY1 (Arabidopsis thaliana; L110F) was tested, and the Km [2] was 1.75 ± 0.33 × 10^-3 M and the kcat [2] was 4.82 ± 0.32 × 10^2 s-1.

In the case of AtSOBER1 (Arabidopsis thaliana; F65L), the Km [2] is reported as 3.12 ± 0.44 × 10^-4 M, the kcat [2] is reported as 1.88 ± 0.23 × 10^2 s-1 and the Km [3] is reported as 4.80 ± 0.23 × 10^-5 M. The kcat [3] was 1.10 ± 0.18 × 10^1 s-1.

With `CC(=O)SCCNC(=O)CCNC(=O)[C@H](O)C(C)(C)COP(=O)(O)OP(=O)(O)OC[C@H]1O[C@@H](n2cnc3c(N)ncnc32)[C@H](O)[C@@H]1OP(=O)(O)O` [[Acetyl-1-^14C]-Acetyl Coenzyme A] the “autoradiography of auto-acetylation on anti-HA beads” value (HA:AvrBsT) was “led to auto-acetylation of the wild type protein, but not the enzymatically inactive mutant”.

B1: AtSOBER1 (Arabidopsis thaliana) (protein)
chain: MARTFILWLHGLGDSGPANEPIQTQFKSSELSNASWLFPSAPFNPVTCNNGAVMRSWFDVPELPFKVGSPIDESSVLEAVKNVHAIIDQEIAEGTNPENVFICGLSQGGALTLASVLLYPKTLGGGAVLSGWVPFTSSIISQFPEEAKKTPILWSHGTDDRMVLFEAGQAALPFLKEAGVTCEFKAYPGLGHSISNKELKYIESWIKRRLKGSSSTCLQLNCLKEMFH
Work on B1 yielded a Km (purified protein [4]) of 158 µM, a Km (purified protein [5]) of 227 µM and a Km (purified protein [6]) of 327 µM.

B2: AtTIPSY1 (Arabidopsis thaliana) (protein)
chain: T1 sequence (Q8GYK2 1-262)
For B2, the Km (purified protein [4]) was 1.75 ± 0.18 × 10^-3 M, the Km (purified protein [5]) was 5.03 ± 0.41 × 10^-4 M and the Km (purified protein [6]) was 3.07 ± 0.29 × 10^-4 M. The kcat (purified protein [6]) was 6.46 ± 0.39 × 10^1 s-1.
